Data on one molecule can be found in patent publication US20250002610A1 (Genmab, published 2025).

Experiment [1] deals with T1, human DR4 (Death Receptor 4), cell surface expressed on human tumor cell lines (human, UniProt O00220 24-468).
T1 construct: also called TNFRSF10A; TRAIL-R1
T1 sequence: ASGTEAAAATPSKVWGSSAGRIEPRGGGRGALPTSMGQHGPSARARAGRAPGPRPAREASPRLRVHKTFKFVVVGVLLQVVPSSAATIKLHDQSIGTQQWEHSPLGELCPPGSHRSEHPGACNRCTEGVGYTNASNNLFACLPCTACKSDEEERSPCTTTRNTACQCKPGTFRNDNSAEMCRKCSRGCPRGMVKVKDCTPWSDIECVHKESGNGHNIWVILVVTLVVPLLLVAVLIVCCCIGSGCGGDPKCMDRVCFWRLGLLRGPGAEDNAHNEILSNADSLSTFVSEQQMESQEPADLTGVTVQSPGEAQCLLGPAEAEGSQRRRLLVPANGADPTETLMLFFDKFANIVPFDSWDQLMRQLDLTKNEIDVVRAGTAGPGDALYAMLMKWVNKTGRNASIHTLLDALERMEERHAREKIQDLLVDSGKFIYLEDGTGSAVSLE
The experiment in a line: flow cytometry, HCT-116 cells, n = 1. For orientation: Flow cytometry measures light scatter and fluorescence of single cells or particles in a stream.

Experiment [2] addresses T1, human DR4 (Death Receptor 4), cell …. The experiment in a line: flow cytometry, HCT-116 cells, n = 3.
Experiment [3] concerns the target T2, cynomolgus monkey FAPα on Expi293F cells (cynomolgus monkey (Macaca fascicularis), UniProt Q12884 1-760 (human entry)).
T2 sequence: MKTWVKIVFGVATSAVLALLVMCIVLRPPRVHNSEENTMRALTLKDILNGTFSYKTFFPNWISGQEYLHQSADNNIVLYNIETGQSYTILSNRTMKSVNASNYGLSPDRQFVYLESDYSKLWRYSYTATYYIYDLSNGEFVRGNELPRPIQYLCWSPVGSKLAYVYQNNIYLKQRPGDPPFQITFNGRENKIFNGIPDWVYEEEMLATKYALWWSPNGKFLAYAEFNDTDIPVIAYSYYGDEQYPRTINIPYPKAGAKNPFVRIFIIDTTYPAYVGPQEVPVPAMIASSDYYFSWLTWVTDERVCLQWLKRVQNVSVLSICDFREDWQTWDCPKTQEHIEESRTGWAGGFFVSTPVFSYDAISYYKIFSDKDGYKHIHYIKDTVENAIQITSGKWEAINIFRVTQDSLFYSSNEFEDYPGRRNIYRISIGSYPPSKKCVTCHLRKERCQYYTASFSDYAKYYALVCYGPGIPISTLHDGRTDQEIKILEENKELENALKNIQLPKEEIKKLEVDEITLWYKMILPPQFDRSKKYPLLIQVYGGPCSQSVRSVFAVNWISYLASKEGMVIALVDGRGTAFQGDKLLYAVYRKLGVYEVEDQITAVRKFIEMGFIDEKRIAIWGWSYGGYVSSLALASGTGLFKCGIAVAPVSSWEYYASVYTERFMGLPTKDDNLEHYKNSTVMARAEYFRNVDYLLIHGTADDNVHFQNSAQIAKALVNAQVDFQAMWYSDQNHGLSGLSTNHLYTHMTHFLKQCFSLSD
The experiment is described as follows: flow cytometry, Expi293F cells expressing cynomolgus monkey FAPα, n = 2. The procedure: (§1) Binding of BisG1-FAPα-FERL/DR4-FERR, BisG1-FAPα-FEAL/b12-FEAR and IgG1-FAPα-FERL to FAPα of species commonly used for nonclinical toxicology studies was assessed by flow cytometry using Expi293F cells transiently expressing FAPα from different animal species. IgG1-b12 was included as negative control.
(§2) Expi293F cells expressing recombinant FAPα from various species (human, cynomolgus monkey, dog, pig, rat or mouse) were seeded (20,000 cells/well) in 96-Well round bottom plates (Greiner Bio-one, Cat #650101). Antibody dilutions were prepared using FACS buffer, consisting of PBS (Capricorn Scientific, Cat #PBS-10XA, diluted to 1×PBS in distilled water)+1% BSA (Roche, Cat #10735086001)+0.02% Sodium Azide (Bio-World, Cat #41920044-3). Plates were centrifuged, supernatant was removed, and cells were resuspended in 100 μL of antibody dilutions (concentration range 30-0.00017 μg/mL with three-fold serial dilutions using FACS buffer) of BisG1-FAPα-FERL/DR4-FERR, BisG1-FAPα-FEAL/b12-FEAR, IgG1-FAPα-FERL and IgG1-b12 and incubated for 30 min at 4° C. […] After 30 min incubation at 4° C., cells were washed with FACS buffer and resuspended in FACS buffer supplemented with TO-PRO-3 Iodide viability marker (Invitrogen, Cat #T3605, diluted 1:4,000). Antibody binding to viable cells (gMFI of PE on TO-PRO-3 negative cells) was analyzed by flow cytometry on a FACS Celesta and FACS_Diva software (first two experiments) or iQue® 3 and FlowJo software (last experiment). gMFI was determined and visualized using GraphPad Prism. Binding curves were analyzed using nonlinear regression analysis. The concentration (pg/mL) at which 50% of the maximal effect was observed (EC₅₀) was derived from the fitted curves.

The target of experiment [4] is T3, dog FAPα on Expi293F cells (dog (Canis familiaris), UniProt A5D7B7 1-760 (bovine entry)).
T3 chain: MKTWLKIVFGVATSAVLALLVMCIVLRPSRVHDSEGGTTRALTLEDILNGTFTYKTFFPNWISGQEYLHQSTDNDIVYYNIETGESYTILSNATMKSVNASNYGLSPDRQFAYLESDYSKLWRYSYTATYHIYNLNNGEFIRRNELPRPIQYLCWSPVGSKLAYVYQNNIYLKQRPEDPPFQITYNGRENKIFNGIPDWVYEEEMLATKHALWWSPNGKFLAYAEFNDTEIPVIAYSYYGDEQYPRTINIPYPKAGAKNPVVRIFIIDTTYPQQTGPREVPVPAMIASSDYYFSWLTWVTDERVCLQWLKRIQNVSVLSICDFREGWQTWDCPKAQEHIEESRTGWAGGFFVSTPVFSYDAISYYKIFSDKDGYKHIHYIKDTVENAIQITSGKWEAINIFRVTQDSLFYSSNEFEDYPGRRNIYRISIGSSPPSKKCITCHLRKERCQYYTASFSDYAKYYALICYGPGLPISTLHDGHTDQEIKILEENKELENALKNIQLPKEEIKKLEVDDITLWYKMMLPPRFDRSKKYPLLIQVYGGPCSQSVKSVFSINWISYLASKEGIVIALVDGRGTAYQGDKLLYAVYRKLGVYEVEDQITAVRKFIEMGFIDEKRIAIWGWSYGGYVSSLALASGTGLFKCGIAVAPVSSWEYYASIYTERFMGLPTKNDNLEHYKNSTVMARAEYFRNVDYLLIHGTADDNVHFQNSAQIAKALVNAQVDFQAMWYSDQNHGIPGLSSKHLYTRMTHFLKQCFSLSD
The experiment in a line: flow cytometry on Expi293F cells transiently expressing dog FAPα, gMFI PE. The procedure:
as §1, §2

B1: BisG1-FAPα-FERL/DR4-FERR (bispecific antibody, human IgG1, kappa, lambda)
heavy 1: EVQLLESGGGLVQPGGSPRLSCEASGFTFSSYALSWVRQAPGKGLEWVSAISGSGGGRYYADSVKGRFTISRDNSKNTLFLQMNSLRAEDTAVYYCAKEGYSSSGTYWDHWGQGTLVTVSSASTKGPSVFPLAPSSKSTSGGTAALGCLVKDYFPEPVTVSWNSGALTSGVHTFPAVLQSSGLYSLSSVVTVPSSSLGTQTYICNVNHKPSNTKVDKRVEPKSCDKTHTCPPCPAPEFERGPSVFLFPPKPKDTLMISRTPEVTCVVVDVSHEDPEVKFNWYVDGVEVHNAKTKPREEQYNSTYRVVSVLTVLHQDWLNGKEYKCKVSNKALPAPIEKTISKAKGQPREPQVYTLPPSREEMTKNQVSLTCLVKGFYPSDIAVEWESNGQPENNYKTTPPVLDSDGSFLLYSKLTVDKSRWQQGNVFSCSVMHEALHNHYTQKSLSLSPG
light 1: AIQMTQSPSSVSASVGDRVTITCRASQGVSSWLAWYQQKPGRAPKLLIYVASTLQSGVPSRFSGSGSGTDFTLTINSLQPEDFATYYCQQANSFPPTFGQGTRLEMKRTVAAPSVFIFPPSDEQLKSGTASVVCLLNNFYPREAKVQWKVDNALQSGNSQESVTEQDSKDSTYSLSSTLTLSKADYEKHKVYACEVTHQGLSSPVTKSFNRGEC
heavy 2: QVQLQESGPGLVKPSGTLSLTCAVSGGSISSYSWWSWIRQPPGKGLEWIGELYHSGSTNYNPSLKSRVTISVDKSKNQFSLKLRSVTAADTAVYYCVRGVATIDYWGQGTLVTVSSASTKGPSVFPLAPSSKSTSGGTAALGCLVKDYFPEPVTVSWNSGALTSGVHTFPAVLQSSGLYSLSSVVTVPSSSLGTQTYICNVNHKPSNTKVDKRVEPKSCDKTHTCPPCPAPEFERGPSVFLFPPKPKDTLMISRTPEVTCVVVDVSHEDPEVKFNWYVDGVEVHNAKTKPREEQYNSTYRVVSVLTVLHQDWLNGKEYKCKVSNKALPAPIEKTISKAKGQPREPQVYTLPPSREEMTKNQVSLTCLVKGFYPSDIAVEWESNGQPENNYKTTPPVLDSDGSFFLYSRLTVDKSRWQQGNVFSCSVMHEALHNHYTQKSLSLSPG
light 2: QSALTQPPSASGSPGQSVTISCTGTSSDVGGYNFVSWYQQDPGKAPKLLIYEVTKRPSGVPDRFSGSKSGNTASLTVSGLQAEDEADYYCSSYAGSNNVMFGGGTKLTVLGQPKAAPSVTLFPPSSEELQANKATLVCLISDFYPGAVTVAWKADSSPVKAGVETTTPSKQSNNKYAASSYLSLTPEQWKSHRSYSCQVTHEGSTVEKTVAPTECS
notes: Human IgG1 bispecific made by controlled Fab-arm exchange of IgG1-FAPα-FERL and IgG1-DR4-FERR; monovalent for FAPα and for DR4; also called GEN1057
In general, EC50 refers to the concentration giving half of the maximal effect. Consider B1, for which the EC50 in experiment [1] is 0.48 µg/mL; in experiment [2], 0.53 µg/mL; in experiment [3] it was 0.36 µg/mL. Also, the binding result in experiment [4] is recorded as “binds”.
